Laboratory results from US20260232801A1 (published 2026).

T1: TP53 wild-type peptide on HLA-A*02:01 (human)
T1 peptide: HMTEVVRRC

T2: TP53 R175H peptide on HLA-A*02:01 (human)
T2 peptide: HMTEVVRHC


Legend:
[1] = biological target: T1, TP53 wild-type peptide on HLA-A*02:01; assay: cytokine release
[2] = biological target: T2, TP53 R175H peptide on HLA-A*02:01; assay: multimer staining

Binder | binding result [1] | binding result [2]
TCR 3C (TCR, V domains shown) Valpha: GEDVEQSLFLSVREGDSSVINCTYTDSSSTYLYWYKQEPGAGLQLLTYIFSNMDMKQDQRLTVLLNKKDKHLSLRIADTQTGDSAIYFCAEGYGGKLIFGQGTELSVKP Vbeta: GAGVSQTPSNKVTEKGKYVELRCDPISGHTALYWYRQSLGQGPEFLIYFQGTGAADDSGLPNDRFFAVRPEGSVSTLKIQRTERGDSAVYLCASSSKTGVVGEQFFGPGTRLTVL | no recognition | recognises
TCR 8A (TCR, V domains shown) Valpha: AQSVAQPEDQVNVAEGNPLTVKCTYSVSGNPYLFWYVQYPNRGLQFLLKYITGDNLVKGSYGFEAEFNKSQTSFHLKKPSALVSDSALYFCAVRAPGNTPLVFGKGTRLSVIA Vbeta: DTAVSQTPKYLVTQMGNDKSIKCEQNLGHDTMYWYKQDSKKFLKIMFSYNNKELIINETVPNRFSPKSPDKAHLNLHINSLELGDSAVYFCASSQDLGFDEKLFFGSGTQLSVL | no recognition | recognises
TCR 7A (TCR, V domains shown) Valpha: AQKVTQAQTEISVVEKEDVTLDCVYETRDTTYYLFWYKQPPSGELVFLIRRNSFDEQNEISGRYSWNFQKSTSSFNFTITASQVVDSAVYFCALRNSGNTPLVFGKGTRLSVIA Vbeta: DSGVTQTPKHLITATGQRVTLRCSPRSGDLSVYWYQQSLDQGLQFLIQYYNGEERAKGNILERFSAQQFPDLHSELNLSSLELGDSALYFCASSVDWVQETQYFGPGTRLLVL | no recognition | recognises
TCR 1B (TCR, V domains shown) Valpha: AQKITQTQPGMFVQEKEAVTLDCTYDTSDPSYGLFWYKQPSSGEMIFLIYQGSYDQQNATEGRYSLNFQKARKSANLVISASQLGDSAMYFCAMREGFSGGYNKLIFGAGTRLAVHP Vbeta: DAGVTQSPTHLIKTRGQQVTLRCSPISGHKSVSWYQQVLGQGPQFIFQYYEKEERGRGNFPDRFSARQFPNYSSELNVNALLLGDSALYLCASSDDTGTTKSSGANVLTFGAGSRLTVL | no recognition | recognises
TCR 3A (TCR, V domains shown) Valpha: GEDVEQSLFLSVREGDSSVINCTYTDSSSTYLYWYKQEPGAGLQLLTYIFSNMDMKQDQRLTVLLNKKDKHLSLRIADTQTGDSAIYFCAEISANQAGTALIFGKGTTLSVSS Vbeta: DTGVSQNPRHKITKRGQNVTFRCDPISEHNRLYWYRQTLGQGPEFLTYFQNEAQLEKSRLLSDRFSAERPKGSFSTLEIQRTEQGDSAMYLCASSPLDSYQETQYFGPGTRLLVL | no recognition | recognises
TCR 1A (TCR, V domains shown) Valpha: SQQGEEDPQALSIQEGENATMNCSYKTSINNLQWYRQNSGRGLVHLILIRSNEREKHSGRLRVTLDTSKKSSSLLITASRAADTASYFCATGSNYGGSQGNLIFGKGTKLSVKP Vbeta: EAGVAQSPRYKIIEKRQSVAFWCNPISGHATLYWYQQILGQGPKLLIQFQNNGVVDDSQLPKDRFSAERLKGVDSTLKIQPAKLEDSAVYLCASSLDYGSSYEQYFGPGTRLTVT | no recognition | recognises
TCR 4A (TCR, V domains shown) Valpha: AQTVTQSQPEMSVQEAETVTLSCTYDTSESNYYLFWYKQPPSRQMILVIRQEAYKQQNATENRFSVNFQKAAKSFSLKISDSQLGDTAMYFCAFMKWQGGSEKLVFGKGTKLTVNP Vbeta: DTAVSQTPKYLVTQMGNDKSIKCEQNLGHDTMYWYKQDSKKFLKIMFSYNNKELIINETVPNRFSPKSPDKAHLNLHINSLELGDSAVYFCASSQALAGEVDTQYFGPGTRLTVL | no recognition | recognises
TCR 7B (TCR, V domains shown) Valpha: DAKTTQPTSMDCAEGRAANLPCNHSTISGNEYVYWYRQIHSQGPQYIIHGLKNNETNEMASLIITEDRKSSTLILPHATLRDTAVYYCIVPRGFSNTGKLIFGQGTTLQVKP Vbeta: GAVVSQHPSRVICKSGTSVKIECRSLDFQATTMFWYRQFPKQSLMLMATSNEGSKATYEQGVEKDKFLINHASLTLSTLTVTSAHPEDSSFYICSASESLALASEQYFGPGTRLTVT | no recognition | recognises
TCR 1C (TCR, V domains shown) Valpha: DQQVKQNSPSLSVQEGRISILNCDYTNSMFDYFLWYKKYPAEGPTFLISISSIKDKNEDGRFTVFLNKSAKHLSLHIVPSQPGDSAVYFCAATVGLAGNMLTFGGGTRLMVKP Vbeta: DSGVTQTPKHLITATGQRVTLRCSPRSGDLSVYWYQQSLDQGLQFLIQYYNGEERAKGNILERFSAQQFPDLHSELNLSSLELGDSALYFCASSTPLSGSSTDTQYFGPGTRLTVL | no recognition | recognises
TCR 7D (TCR, V domains shown) Valpha: QKEVEQDPGPLSVPEGAIVSLNCTYSNSAFQYFMWYRQYSRKGPELLMYTYSSGNKEDGRFTAQVDKSSKYISLFIRDSQPSDSATYLCASSFSGYNKLIFGAGTRLAVHP Vbeta: DSGVTQTPKHLITATGQRVTLRCSPRSGDLSVYWYQQSLDQGLQFLIQYYNGEERAKGNILERFSAQQFPDLHSELNLSSLELGDSALYFCASSERLAGAIADTQYFGPGTRLTVL | no recognition | recognises
TCR 1D (TCR, V domains shown) Valpha: EDQVTQSPEALRLQEGESSSLNCSYTVSGLRGLFWYRQDPGKGPEFLFTLYSAGEEKEKERLKATLTKKESFLHITAPKPEDSATYLCAVHSNYQLIWGAGTKLIIKP Vbeta: DSGVTQTPKHLITATGQRVTLRCSPRSGDLSVYWYQQSLDQGLQFLIHYYNGEERAKGNILERFSAQQFPDLHSELNLSSLELGDSALYFCASSTPLRTRGTDTQYFGPGTRLTVL | no recognition | recognises
TCR 3B (TCR, V domains shown) Valpha: AQKITQTQPGMFVQEKEAVTLDCTYDTSDQSYGLFWYKQPSSGEMIFLIYQGSYDEQNATEGRYSLNFQKARKSANLVISASQLGDSAMYFCAMREGRGRRALTFGSGTRLQVQP Vbeta: ETGVTQTPRHLVMGMTNKKSLKCEQHLGHNAMYWYKQSAKKPLELMFVYSLEERVENNSVPSRFSPECPNSSHLFLHLHTLQPEDSALYLCASSQDTAWDSGGETDTQYFGPGTRLTVL | no recognition | recognises
